{"source": "patent US20100137420", "key": {"recombinant cystatin C": {"molecular_target": "T1, recombinant cystatin C", "T1 chain": "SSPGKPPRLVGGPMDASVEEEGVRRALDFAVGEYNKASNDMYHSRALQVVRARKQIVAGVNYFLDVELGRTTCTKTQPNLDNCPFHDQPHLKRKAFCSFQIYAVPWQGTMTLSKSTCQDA"}, "[1]": {"molecular_target": "cathepsin B (from THP-1 cell lysates), P07858"}}}
{"protein": "MMP-2 (protein) YNFFPRKPKWDKNQITYRIIGYTPDLDPETVDDAFARAFQVWSDVTPLRFSRIHDGEADIMINFGRWEHGDGYPFDGKDGLLAHAFAPGTGVGGDSHFDDDELWTLGEGQVVRVKYGNADGEYCKFPFLFNGKEYNSCTDTGRSDGFLWCSTTYNFEKDGKYGFCPHEALFTMGGNAEGQPCKFPFRFQGTSYDSCTTEGRTDGYRWCGTTEDYDRDKKYGFCPETAMSTVGGNSEGAPCVFPFTFLGNKYESCTSAGRSDGKMWCATTANYDDDRKWGFCPDQGYSLFLVAAHEFGHAMGLEHSQDPGALMAPIYTYTKNFRLSQDDIKGIQELYGASPDIDLGTGPTPTLGPVTPEICKQDIVFDGIAQIRGEIFFFKDRFIWRTVTPRDKPMGPLLVATFWPELPEKIDAVYEAPQEEKAVFFAGNEYWIYSASTLERGYPKPLTSLGLPPDVQRVDAAFNWSKNKKTYIFAGDKFWRYNEVKKKMDPGFPKLIADAWNAIPDNLDAVVDLQGGGHSYFFKGAYYLKLENQSLKSVKFGSIKSDWLGC", "values": [{"measurement": "cleavage of recombinant cystatin C", "setting": "recombinant cystatin C", "result": "MMP-2 cleaved cystatin C at three unique sites"}, {"measurement": "cathepsin B activity (fluorogenic Ac-Arg-Arg-AFC assay)", "setting": "[1]", "result": "Cathepsin D and MMP-2 alone had no effect on cathepsin B activity"}]}
